Assay results published in publication PMC7611231, “Allosteric Activation of the ATPase Activity of the Escherichia coli RhlB RNA Helicase*” (The Journal of biological chemistry, 2007).

B1: N-terminal His6-tagged RNase E residues 696-762 (domain or fragment, E. coli, UniProt P21513 696-762, looked up)
chain: ALNVEEQSVQETEQEERVRPVQPRRKQRQLNQKVRYEQSVAEEAVVAPVVEETVAAEPIVQEAPAPR
notes: Cloned BamHI/SalI in the first cloning site of pRSF-Duet-1; also called RNase E peptide; source: E. coli, pRSF-Duet-1, purified (Ni-NTA, S200); also co-expressed with RhlB from pRneRhlB in E. coli BL21(DE3), co-purified (Ni-NTA, SP, S200); not shown: His6, N-terminal, kept
B2: Escherichia coli DEAD box RNA helicase RhlB, wild type (enzyme, E. coli, UniProt P0A8J8 1-421, looked up)
chain: MSKTHLTEQKFSDFALHPKVVEALEKKGFHNCTPIQALALPLTLAGRDVAGQAQTGTGKTMAFLTSTFHYLLSHPAIADRKVNQPRALIMAPTRELAVQIHADAEPLAEATGLKLGLAYGGDGYDKQLKVLESGVDILIGTTGRLIDYAKQNHINLGAIQVVVLDEADRMYDLGFIKDIRWLFRRMPPANQRLNMLFSATLSYRVRELAFEQMNNAEYIEVEPEQKTGHRIKEELFYPSNEEKMRLLQTLIEEEWPDRAIIFANTKHRCEEIWGHLAADGHRVGLLTGDVAQKKRLRILDEFTRGDLDILVATDVAARGLHIPAVTHVFNYDLPDDCEDYVHRIGRTGRAGASGHSISLACEEYALNLPAIETYIGHSIPVSKYNPDALMTDLPKPLRLTRPRTGNGPRRTGAPRNRRRSG
notes: The same untagged protein from two vectors (pET11a alone; second cloning site of pRSF-Duet-1, NdeI/XhoI, in pRneRhlB); also called WT RhlB; Helicase B; source: E. coli BL21(DE3), pET11a, purified (published procedure plus S200 size exclusion)

Key:
[1] = target: RNase E 628-843 (Escherichia coli) (UniProt P21513); conditions: cited from earlier work
Chain of RNase E 628-843 (Escherichia coli) (P21513 628-843): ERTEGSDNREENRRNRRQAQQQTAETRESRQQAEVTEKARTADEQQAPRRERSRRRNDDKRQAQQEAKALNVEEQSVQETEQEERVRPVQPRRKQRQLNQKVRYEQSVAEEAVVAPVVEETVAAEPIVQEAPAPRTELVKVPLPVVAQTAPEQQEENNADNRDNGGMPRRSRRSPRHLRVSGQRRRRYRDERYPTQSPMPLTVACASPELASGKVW

RhlB S381A (E. coli) [2] = target: RhlB S381A (E. coli)
[3] = target: B2; experiment: native MS; nanoflow ESI under non-dissociating conditions; co-expressed complex after size exclusion chromatography, 5-20 uM, 250 mM ammonium acetate; MS/MS of the +15 ion; conditions: both partners purified
[4] = target: B2; experiment: ITC; 300 uM RNase E-(696-762) in the syringe titrated into 20 uM WT RhlB or variant in the cell; 25 C; 50 mM potassium phosphate pH 7.4, 100 mM NaCl, 1 mM dithiothreitol (methods; the table's caption says 100 mM KPi, 50 mM NaCl); 1:1 model; Ka are lower limits; conditions: both partners purified
RhlB S381A (E. coli) [5] = experiment: as above
RhlB H320D (E. coli) = experiment: as above
[6] = target: B1; experiment: SEC; co-expressed in E. coli from a di-cistronic vector; His6-RNase E-(696-762) held on Ni-NTA, then SP column and S200 size exclusion; fractions on SDS-PAGE; conditions: partners not purified

## RhlB (from UniProt P0A8J8)
[1]
  Kd: 0.05 µM

## B1
RhlB S381A (E. coli) [2]
  ATPase activity of S381A RhlB with RNase E-(696-762) and bulk S. cerevisiae RNA (S381A RhlB alone: ≤0.5) (mol Pi/min/mol protein): 9.4
[3]
  stoichiometry N: 1
[4]
  Ka: ≥ 1.1e+08 M⁻¹
  dH: -115 kJ/mol
  stoichiometry N: 0.92
RhlB S381A (E. coli) [5]
  Ka: > 8e+07 M⁻¹
  dH: -97.5 kJ/mol
  stoichiometry N: 1.2
RhlB H320D (E. coli)
  Ka: > 7e+07 M⁻¹
  dH: -121 kJ/mol
  stoichiometry N: 0.83

## B2
[6]
  stoichiometry N: ~1
